Data as given in the supplement of paper PMC7125110.
± gives the standard error. This sample holds only a part of the variants without activity.

B1: glmS ribozyme (parent)
chain: AUAAAAGCGCCAGAACUACAGAAAUGUAGUUGACGAGGAGGAGGUUUAUCGAAUUUUCGGCGGAUGCCUCCAAA

Experiments:
Settings in all cases: with glucosamine-6-phosphate
glucosamine-6-phosphate [1] = variants of: B1; experiment: self-cleavage kobs at 640 uM GlcN6P; higher = faster cleavage; RNA array
How it was run: (§1)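 On sequenced MiSeq chips, barcoded ribozyme variants were made in situ by E. coli RNA polymerase and followed at 37 °C through a hybridised Cy3 probe. Glucosamine-6-phosphate was flowed in at 40 μM to 10 mM in HEPES/KCl/Mg(OAc)2 buffer. Exponential fits to normalised per-tile medians gave kobs, and weighted Michaelis–Menten fits gave kcat and KM.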

glucosamine-6-phosphate [2] = variants of: B1; experiment: self-cleavage kobs at 2500 uM GlcN6P; higher = faster cleavage; RNA array
How it was run: as §1

glucosamine-6-phosphate [3] = variants of: B1; experiment: self-cleavage kobs at 10000 uM GlcN6P; higher = faster cleavage; RNA array
How it was run: as §1

| Variant | self-cleavage kobs at 640 uM GlcN6P (glucosamine-6-phosphate [1]) [s⁻¹] | self-cleavage kobs at 2500 uM GlcN6P (glucosamine-6-phosphate [2]) [s⁻¹] | self-cleavage kobs at 10000 uM GlcN6P (glucosamine-6-phosphate [3]) [s⁻¹] |
| --- | --- | --- | --- |
| A42G A52U | 5.23e-05 ± 1.2e-05 | 0.000479 ± 9.3e-05 | 0.000467 ± 9.8e-05 |
| G43A C50A | < 1e-05 | – | – |
| G37U G41A G63U A64G | < 1e-05 | – | – |
| G7A C8U U31C A52C | < 1e-05 | < 1e-05 | – |
| C16U G66U C68G | 0.000124 ± 4.1e-05 | – | – |
| A15C G41C A48G | < 1e-05 | – | – |
| A15C A64C C71U | < 1e-05 | – | – |
| C16G G29U G35A | < 1e-05 | – | – |
| U45C U69G | 8.34e-05 ± 3.9e-05 | – | – |
| G32U C58A C70G | 0.000218 ± 7.9e-05 | 0.000221 ± 5.9e-05 | – |
| C34U G38U A42G | < 1e-05 | < 1e-05 | – |
| G7U A39G A48U | < 1e-05 | – | – |
| G32U U56A C67A | 0.000114 ± 2.4e-05 | 0.000294 ± 8.2e-05 | – |
| A14C G29A G35A G59A | < 1e-05 | < 1e-05 | – |
| A6U G35A G43U | < 1e-05 | < 1e-05 | – |
| G35C A39C A52U G60C G63U | < 1e-05 | < 1e-05 | – |
| A14C U30C G38U A39U A53U U55G | < 1e-05 | < 1e-05 | – |
| C11G C16A U31C A42U | < 1e-05 | – | – |
| A15U G37A | 0.000117 ± 2.4e-05 | 0.000103 ± 2.8e-05 | 0.000568 ± 0.00011 |
| A14U A36C G44A U55C C61A | < 1e-05 | – | – |
| C34G U45C G59U G62A G66A | < 1e-05 | – | – |
| C11A A52G A64C | < 1e-05 | < 1e-05 | – |

| Variant | self-cleavage kobs at 640 uM GlcN6P (glucosamine-6-phosphate [1]) [s⁻¹] | self-cleavage kobs at 2500 uM GlcN6P (glucosamine-6-phosphate [2]) [s⁻¹] | self-cleavage kobs at 10000 uM GlcN6P (glucosamine-6-phosphate [3]) [s⁻¹] |
| --- | --- | --- | --- |
| U30G G43A C67A | 9.35e-05 ± 3e-05 | 0.000157 ± 5.9e-05 | – |
| G32C G51C | < 1e-05 | < 1e-05 | – |
| A14C C50U U54A | < 1e-05 | < 1e-05 | – |
| C10U G43A C50A | < 1e-05 | – | – |
| C8U G35A U49A | < 1e-05 | – | – |
| A12U A36C C68G | 0.000173 ± 5.8e-05 | – | – |
| G13C A39G U57C A64U C67U C70U | < 1e-05 | – | – |
| A14U U17C A18U C19A G59U G66A | < 1e-05 | < 1e-05 | – |
| C11A G41A U49G G63U | < 1e-05 | < 1e-05 | – |
| A42G G43A C67U C68U | 0.000241 ± 0.00011 | – | 0.000713 ± 0.00018 |
| A15U C16G G37C | < 1e-05 | – | – |
| A14G G66U C67G | 0.000361 ± 7.9e-05 | 0.00105 ± 0.00021 | – |
| A14G U31G C67G | 6.87e-05 ± 2.7e-05 | 5.23e-05 ± 1.9e-05 | – |
| U47A G62A | < 1e-05 | < 1e-05 | – |
| C10G G66U C68G C71A | 8.79e-05 ± 3.1e-05 | – | – |
| G43A U57G U69A | < 1e-05 | – | – |
| G35A G60U C70G | < 1e-05 | < 1e-05 | – |
| G38A G60A | < 1e-05 | < 1e-05 | – |
| G9C A42U U47A U57G | < 1e-05 | – | – |
| G37U U55G U69G | 3.09e-05 ± 1.4e-05 | – | – |
| A12G A33G G40C A52G U54A C58A | < 1e-05 | – | – |
| C50G G62A C68G | 0.000159 ± 4.6e-05 | – | 0.000111 ± 2.9e-05 |

| Variant | self-cleavage kobs at 640 uM GlcN6P (glucosamine-6-phosphate [1]) [s⁻¹] | self-cleavage kobs at 2500 uM GlcN6P (glucosamine-6-phosphate [2]) [s⁻¹] | self-cleavage kobs at 10000 uM GlcN6P (glucosamine-6-phosphate [3]) [s⁻¹] |
| --- | --- | --- | --- |
| C10U A14G U69A | 4.59e-05 ± 2.2e-05 | 4.32e-05 ± 1.9e-05 | – |
| U31C A53G U65G | 0.000195 ± 3.6e-05 | 0.000454 ± 7.6e-05 | 0.000519 ± 9.8e-05 |
| A6G G32U G35U G51A | < 1e-05 | – | – |
| C11G G13U G29A G66A | < 1e-05 | – | – |
| A42C U46G C71G | < 1e-05 | < 1e-05 | – |
| C8G G66C | < 1e-05 | < 1e-05 | – |
| C8U A33C G35C U56G U65C | < 1e-05 | < 1e-05 | – |
| G37C G40A C50G | < 1e-05 | < 1e-05 | – |
| A12C G41U U46G | 8.69e-05 ± 1.8e-05 | 7.37e-05 ± 2.8e-05 | – |
| G35U C58A A64U | < 1e-05 | < 1e-05 | – |
| C10U A33G G40U C50G | < 1e-05 | – | – |
| A6G A15U G32C U57G G59U | < 1e-05 | – | – |
| C8G G35U G37A A48U C67U | < 1e-05 | < 1e-05 | – |
| C34A A42C C61U | < 1e-05 | < 1e-05 | – |
| A14U U31A G37C G59C | < 1e-05 | < 1e-05 | – |
| C10U U31A G40U U49C C58U G59U C70G | < 1e-05 | – | – |
| C10G A15C C50A | < 1e-05 | – | – |
| A6C C8G U54C | < 1e-05 | – | – |
| G13A C50G U55A C67U | 0.000168 ± 8.1e-05 | 7.15e-05 ± 2.6e-05 | – |
| A14G A36U G41A | < 1e-05 | < 1e-05 | < 1e-05 |
| C8U G44U G60U | < 1e-05 | – | – |
